From PMC9482650, “Quantitative fragmentomics allow affinity mapping of interactomes” (Nature Communications, 2022)

Tests used:
Experiment in all cases: holdup assay
Set-up in all cases: key: below the threshold = too weak to quantify, mostly under pKd 3.1 to 4
APBA1_2, Q02410 = biological target: T1, APBA1_2, Q02410
T1 sequence (Q02410 742-832, limits assumed, looked up): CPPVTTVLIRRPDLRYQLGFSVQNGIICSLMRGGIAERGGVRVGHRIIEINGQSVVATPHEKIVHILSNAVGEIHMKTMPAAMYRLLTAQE

ARHGEF11, O15085 = biological target: T2, ARHGEF11, O15085
T2 sequence (O15085 42-136, limits assumed, looked up): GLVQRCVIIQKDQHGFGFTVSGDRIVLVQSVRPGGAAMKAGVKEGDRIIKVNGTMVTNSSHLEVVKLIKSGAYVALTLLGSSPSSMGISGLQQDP

ARHGEF12, Q9NZN5-2 = biological target: ARHGEF12, Q9NZN5-2
CASK, O14936 = biological target: CASK, O14936
DLG1_1, Q12959 = biological target: DLG1_1, Q12959
DLG2_2, Q15700 = biological target: DLG2_2, Q15700
DLG4_2, P78352 = biological target: DLG4_2, P78352
DLG5_1, Q8TDM6 = biological target: DLG5_1, Q8TDM6
GRIP1_2, Q9Y3R0 = biological target: T3, GRIP1_2, Q9Y3R0
T3 sequence (Q9Y3R0 145-248, limits assumed, looked up): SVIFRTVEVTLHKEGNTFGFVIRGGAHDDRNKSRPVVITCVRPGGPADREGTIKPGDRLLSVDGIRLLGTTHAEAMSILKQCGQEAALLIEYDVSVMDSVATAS

GRIP1_3, Q9Y3R0 = biological target: T4, GRIP1_3, Q9Y3R0
T4 sequence (Q9Y3R0 247-346, limits assumed, looked up): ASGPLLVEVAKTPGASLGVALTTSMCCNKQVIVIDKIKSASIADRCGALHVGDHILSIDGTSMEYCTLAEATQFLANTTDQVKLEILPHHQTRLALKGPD

Inadl_10, Q8NI35 = biological target: Inadl_10, Q8NI35
Inadl_4, Q8NI35 = biological target: Inadl_4, Q8NI35
LRRC7, Q96NW7 = biological target: T5, LRRC7, Q96NW7
T5 sequence (Q96NW7 1440-1537, limits assumed, looked up): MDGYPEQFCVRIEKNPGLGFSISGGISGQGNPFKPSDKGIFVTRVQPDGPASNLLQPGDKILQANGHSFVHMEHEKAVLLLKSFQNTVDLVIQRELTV

MAGI2_3, Q86UL8 = biological target: MAGI2_3, Q86UL8
MAGI2_5, Q86UL8 = biological target: MAGI2_5, Q86UL8
MPDZ_12, O75970 = biological target: T6, MPDZ_12, O75970
T6 sequence (O75970 1857-1958, limits assumed, looked up): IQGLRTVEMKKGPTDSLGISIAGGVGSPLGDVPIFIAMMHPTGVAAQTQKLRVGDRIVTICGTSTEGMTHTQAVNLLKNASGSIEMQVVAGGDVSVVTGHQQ

NHERF4_2, Q86UT5 = biological target: NHERF4_2, Q86UT5
PARD3_3, Q8TEW0 = biological target: PARD3_3, Q8TEW0
PDZRN3_1, Q9UPQ7 = biological target: T7, PDZRN3_1, Q9UPQ7
T7 sequence (Q9UPQ7 244-349, limits assumed, looked up): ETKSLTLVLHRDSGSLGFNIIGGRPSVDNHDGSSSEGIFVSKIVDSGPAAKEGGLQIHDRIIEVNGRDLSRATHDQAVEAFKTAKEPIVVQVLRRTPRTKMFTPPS

PTPN13_1, Q12923 = biological target: T8, PTPN13_1, Q12923
T8 sequence (Q12923 1088-1188, limits assumed, looked up): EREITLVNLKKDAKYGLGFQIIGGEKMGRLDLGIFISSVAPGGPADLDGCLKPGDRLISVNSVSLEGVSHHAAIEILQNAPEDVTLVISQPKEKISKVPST

RADIL, Q96JH8 = biological target: T9, RADIL, Q96JH8
T9 sequence (Q96JH8 971-1071, limits assumed, looked up): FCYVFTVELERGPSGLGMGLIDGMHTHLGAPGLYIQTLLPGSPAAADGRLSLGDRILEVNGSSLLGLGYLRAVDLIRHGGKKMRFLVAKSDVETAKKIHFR

RHPN1, Q8TCX5 = biological target: T10, RHPN1, Q8TCX5
T10 sequence (Q8TCX5 508-602, limits assumed, looked up): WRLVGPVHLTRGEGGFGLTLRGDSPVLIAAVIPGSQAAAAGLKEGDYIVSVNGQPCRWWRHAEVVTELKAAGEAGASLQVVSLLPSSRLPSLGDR

SCRIB_1, Q14160 = biological target: SCRIB_1, Q14160
SCRIB_3, Q14160 = biological target: SCRIB_3, Q14160
SNTB1, Q13884 = biological target: T11, SNTB1, Q13884
T11 sequence (Q13884 107-205, limits assumed, looked up): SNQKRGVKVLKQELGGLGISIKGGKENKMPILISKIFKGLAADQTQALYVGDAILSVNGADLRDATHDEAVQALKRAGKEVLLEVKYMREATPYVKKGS

SNTG2, Q9NY99 = biological target: T12, SNTG2, Q9NY99
T12 sequence (Q9NY99 68-166, limits assumed, looked up): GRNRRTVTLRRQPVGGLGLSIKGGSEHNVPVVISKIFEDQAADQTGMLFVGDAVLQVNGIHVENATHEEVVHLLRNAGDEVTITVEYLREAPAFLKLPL

[1] = plain residues with an end cap or a label only (N-terminal biotin on a linker: ado-ado)
[2] = modified: phospho on T at position -2 from the C-terminal residue

Chain of MAGI2_5, Q86UL8 (Q86UL8 915-1017): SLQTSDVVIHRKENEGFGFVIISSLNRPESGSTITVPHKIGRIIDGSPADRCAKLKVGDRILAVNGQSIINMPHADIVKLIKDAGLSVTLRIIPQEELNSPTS
Chain of MAGI2_3, Q86UL8 (Q86UL8 600-682): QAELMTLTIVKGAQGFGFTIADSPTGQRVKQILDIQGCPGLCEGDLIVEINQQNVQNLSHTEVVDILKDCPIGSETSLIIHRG
Chain of SCRIB_1, Q14160 (Q14160 718-814): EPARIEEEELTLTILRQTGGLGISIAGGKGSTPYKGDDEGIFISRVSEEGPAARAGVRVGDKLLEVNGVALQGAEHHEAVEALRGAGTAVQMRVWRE
Chain of Inadl_4, Q8NI35 (Q8NI35 547-651): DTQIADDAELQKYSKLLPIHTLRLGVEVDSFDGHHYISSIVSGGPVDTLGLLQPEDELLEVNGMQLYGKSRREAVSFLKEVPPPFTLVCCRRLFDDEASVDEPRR
Chain of DLG2_2, Q15700 (Q15700 189-283): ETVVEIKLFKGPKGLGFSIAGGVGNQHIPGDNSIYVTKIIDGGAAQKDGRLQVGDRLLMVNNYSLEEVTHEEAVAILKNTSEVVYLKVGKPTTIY
Chain of PARD3_3, Q8TEW0 (Q8TEW0 582-685): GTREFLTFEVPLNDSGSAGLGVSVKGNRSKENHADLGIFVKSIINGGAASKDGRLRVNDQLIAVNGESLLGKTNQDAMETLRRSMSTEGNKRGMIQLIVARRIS
Chain of ARHGEF12, Q9NZN5-2 (Q9NZN5 other isoform, or with tags, fused parts or gaps): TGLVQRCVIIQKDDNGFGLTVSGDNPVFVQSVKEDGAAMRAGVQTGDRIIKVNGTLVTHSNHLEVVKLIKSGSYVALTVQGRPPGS
Chain of NHERF4_2, Q86UT5 (Q86UT5 220-308): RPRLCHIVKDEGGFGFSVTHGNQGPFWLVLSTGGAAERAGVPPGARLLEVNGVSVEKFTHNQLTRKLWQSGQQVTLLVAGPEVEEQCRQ
Chain of CASK, O14936 (O14936 487-570): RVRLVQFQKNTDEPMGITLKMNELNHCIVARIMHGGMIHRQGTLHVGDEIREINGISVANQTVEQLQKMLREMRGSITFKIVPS
Chain of SCRIB_3, Q14160 (Q14160 999-1103): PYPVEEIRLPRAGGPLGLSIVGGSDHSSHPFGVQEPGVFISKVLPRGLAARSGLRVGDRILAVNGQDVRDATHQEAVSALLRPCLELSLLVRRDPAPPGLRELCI
Chain of DLG4_2, P78352 (P78352 155-259): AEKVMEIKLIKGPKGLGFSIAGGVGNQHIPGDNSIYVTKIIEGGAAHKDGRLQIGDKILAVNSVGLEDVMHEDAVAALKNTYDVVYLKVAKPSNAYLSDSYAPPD
Chain of DLG5_1, Q8TDM6 (Q8TDM6 617-713): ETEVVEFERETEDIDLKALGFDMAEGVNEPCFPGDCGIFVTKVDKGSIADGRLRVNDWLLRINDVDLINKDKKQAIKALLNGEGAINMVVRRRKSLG
Chain of Inadl_10, Q8NI35 (Q8NI35 1673-1763): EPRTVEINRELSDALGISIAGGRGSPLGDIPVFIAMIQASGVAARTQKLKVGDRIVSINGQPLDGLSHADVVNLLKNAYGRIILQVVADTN

B1: GRIK2, Q13002 (peptide)
chain: RRLPGKETMA
APBA1_2, Q02410; [1]
  pKd: below the threshold
ARHGEF11, O15085; [1]
  pKd: below the threshold
ARHGEF12, Q9NZN5-2; [1]
  pKd: below the threshold
CASK, O14936; [1]
  pKd: below the threshold
DLG1_1, Q12959; [1]
  pKd: below the threshold
DLG2_2, Q15700; [1]
  pKd: below the threshold
DLG4_2, P78352; [1]
  pKd: below the threshold
DLG5_1, Q8TDM6; [1]
  pKd: below the threshold
GRIP1_2, Q9Y3R0; [1]
  pKd: below the threshold
GRIP1_3, Q9Y3R0; [1]
  pKd: below the threshold
Inadl_10, Q8NI35; [1]
  pKd: below the threshold
Inadl_4, Q8NI35; [1]
  pKd: below the threshold
LRRC7, Q96NW7; [1]
  pKd: below the threshold
MAGI2_3, Q86UL8; [1]
  pKd: below the threshold
MAGI2_5, Q86UL8; [1]
  pKd: below the threshold
MPDZ_12, O75970; [1]
  pKd: below the threshold
NHERF4_2, Q86UT5; [1]
  pKd: below the threshold
PARD3_3, Q8TEW0; [1]
  pKd: below the threshold
PDZRN3_1, Q9UPQ7; [1]
  pKd: below the threshold
PTPN13_1, Q12923; [1]
  pKd: below the threshold
RADIL, Q96JH8; [1]
  pKd: below the threshold
RHPN1, Q8TCX5; [1]
  pKd: below the threshold
SCRIB_1, Q14160; [1]
  pKd: below the threshold
SCRIB_3, Q14160; [1]
  pKd: below the threshold
SNTB1, Q13884; [1]
  pKd: below the threshold
SNTG2, Q9NY99; [1]
  pKd: below the threshold

B2: HPV35-E6_-2P, P27228 (peptide)
chain: SKPTRRETEV
APBA1_2, Q02410; [2]
  pKd: below the threshold
ARHGEF11, O15085; [2]
  pKd: below the threshold
ARHGEF12, Q9NZN5-2; [2]
  pKd: below the threshold
CASK, O14936; [2]
  pKd: below the threshold
DLG1_1, Q12959; [2]
  pKd: below the threshold
DLG2_2, Q15700; [2]
  pKd: 3.51
DLG4_2, P78352; [2]
  pKd: 3.56
DLG5_1, Q8TDM6; [2]
  pKd: below the threshold
GRIP1_2, Q9Y3R0; [2]
  pKd: below the threshold
GRIP1_3, Q9Y3R0; [2]
  pKd: below the threshold
Inadl_10, Q8NI35; [2]
  pKd: below the threshold
Inadl_4, Q8NI35; [2]
  pKd: below the threshold
LRRC7, Q96NW7; [2]
  pKd: below the threshold
MAGI2_3, Q86UL8; [2]
  pKd: below the threshold
MAGI2_5, Q86UL8; [2]
  pKd: below the threshold
MPDZ_12, O75970; [2]
  pKd: below the threshold
NHERF4_2, Q86UT5; [2]
  pKd: below the threshold
PARD3_3, Q8TEW0; [2]
  pKd: below the threshold
PDZRN3_1, Q9UPQ7; [2]
  pKd: below the threshold
PTPN13_1, Q12923; [2]
  pKd: below the threshold
RADIL, Q96JH8; [2]
  pKd: below the threshold
RHPN1, Q8TCX5; [2]
  pKd: below the threshold
SCRIB_1, Q14160; [2]
  pKd: below the threshold
SCRIB_3, Q14160; [2]
  pKd: below the threshold
SNTB1, Q13884; [2]
  pKd: below the threshold
SNTG2, Q9NY99; [2]
  pKd: below the threshold

B3: DCAF7, P61962 (peptide)
chain: YNNCLEILRV
APBA1_2, Q02410; [1]
  pKd: below the threshold
ARHGEF11, O15085; [1]
  pKd: 3.78
ARHGEF12, Q9NZN5-2; [1]
  pKd: below the threshold
CASK, O14936; [1]
  pKd: below the threshold
DLG1_1, Q12959; [1]
  pKd: below the threshold
DLG2_2, Q15700; [1]
  pKd: below the threshold
DLG4_2, P78352; [1]
  pKd: below the threshold
DLG5_1, Q8TDM6; [1]
  pKd: below the threshold
GRIP1_2, Q9Y3R0; [1]
  pKd: below the threshold
GRIP1_3, Q9Y3R0; [1]
  pKd: below the threshold
Inadl_10, Q8NI35; [1]
  pKd: below the threshold
Inadl_4, Q8NI35; [1]
  pKd: below the threshold
LRRC7, Q96NW7; [1]
  pKd: below the threshold
MAGI2_3, Q86UL8; [1]
  pKd: below the threshold
MAGI2_5, Q86UL8; [1]
  pKd: below the threshold
MPDZ_12, O75970; [1]
  pKd: below the threshold
NHERF4_2, Q86UT5; [1]
  pKd: below the threshold
PARD3_3, Q8TEW0; [1]
  pKd: 3.97
PDZRN3_1, Q9UPQ7; [1]
  pKd: below the threshold
PTPN13_1, Q12923; [1]
  pKd: below the threshold
RADIL, Q96JH8; [1]
  pKd: 5.14
RHPN1, Q8TCX5; [1]
  pKd: below the threshold
SCRIB_1, Q14160; [1]
  pKd: below the threshold
SCRIB_3, Q14160; [1]
  pKd: below the threshold
SNTB1, Q13884; [1]
  pKd: below the threshold
SNTG2, Q9NY99; [1]
  pKd: below the threshold

B4: DGKH, Q86XP1 (peptide)
chain: LGRSTPQSEV
APBA1_2, Q02410; [1]
  pKd: 3.64
ARHGEF11, O15085; [1]
  pKd: 4.15
ARHGEF12, Q9NZN5-2; [1]
  pKd: 4.18
CASK, O14936; [1]
  pKd: below the threshold
DLG1_1, Q12959; [1]
  pKd: below the threshold
DLG2_2, Q15700; [1]
  pKd: 3.58
DLG4_2, P78352; [1]
  pKd: 3.92
DLG5_1, Q8TDM6; [1]
  pKd: below the threshold
GRIP1_2, Q9Y3R0; [1]
  pKd: below the threshold
GRIP1_3, Q9Y3R0; [1]
  pKd: below the threshold
Inadl_10, Q8NI35; [1]
  pKd: below the threshold
Inadl_4, Q8NI35; [1]
  pKd: below the threshold
LRRC7, Q96NW7; [1]
  pKd: below the threshold
MAGI2_3, Q86UL8; [1]
  pKd: below the threshold
MAGI2_5, Q86UL8; [1]
  pKd: below the threshold
MPDZ_12, O75970; [1]
  pKd: below the threshold
NHERF4_2, Q86UT5; [1]
  pKd: below the threshold
PARD3_3, Q8TEW0; [1]
  pKd: below the threshold
PDZRN3_1, Q9UPQ7; [1]
  pKd: below the threshold
PTPN13_1, Q12923; [1]
  pKd: below the threshold
RADIL, Q96JH8; [1]
  pKd: below the threshold
RHPN1, Q8TCX5; [1]
  pKd: 4.49
SCRIB_1, Q14160; [1]
  pKd: 3.77
SCRIB_3, Q14160; [1]
  pKd: 3.8
SNTB1, Q13884; [1]
  pKd: 4.03
SNTG2, Q9NY99; [1]
  pKd: below the threshold

B5: EVI5, O60447 (peptide)
chain: RRRESYSTTV
APBA1_2, Q02410; [1]
  pKd: 3.74
ARHGEF11, O15085; [1]
  pKd: 4.68
ARHGEF12, Q9NZN5-2; [1]
  pKd: 4.74
CASK, O14936; [1]
  pKd: below the threshold
DLG1_1, Q12959; [1]
  pKd: 5.66
DLG2_2, Q15700; [1]
  pKd: 5.54
DLG4_2, P78352; [1]
  pKd: 5.87
DLG5_1, Q8TDM6; [1]
  pKd: below the threshold
GRIP1_2, Q9Y3R0; [1]
  pKd: below the threshold
GRIP1_3, Q9Y3R0; [1]
  pKd: below the threshold
Inadl_10, Q8NI35; [1]
  pKd: 3.8
Inadl_4, Q8NI35; [1]
  pKd: below the threshold
LRRC7, Q96NW7; [1]
  pKd: below the threshold
MAGI2_3, Q86UL8; [1]
  pKd: below the threshold
MAGI2_5, Q86UL8; [1]
  pKd: 4.54
MPDZ_12, O75970; [1]
  pKd: below the threshold
NHERF4_2, Q86UT5; [1]
  pKd: below the threshold
PARD3_3, Q8TEW0; [1]
  pKd: below the threshold
PDZRN3_1, Q9UPQ7; [1]
  pKd: 3.83
PTPN13_1, Q12923; [1]
  pKd: below the threshold
RADIL, Q96JH8; [1]
  pKd: 4.8
RHPN1, Q8TCX5; [1]
  pKd: below the threshold
SCRIB_1, Q14160; [1]
  pKd: 4.57
SCRIB_3, Q14160; [1]
  pKd: 4.48
SNTB1, Q13884; [1]
  pKd: 4.65
SNTG2, Q9NY99; [1]
  pKd: 4.13
